In the RNAGym collection of RNA variant scans (doi:10.7554/elife.90254):

B1: LINE1-full (parent)
chain: UACGUAGGUGGUUUUCCCCUGAUAGUGCUAAGGGGGCCUGGAAGUUUGGACUGGGCAGAGCUCAACACAGCGUGGCAAAGUGGCUGUGGCUAGACUGCCUCUCUGGAUUCCUCGUCACUCAGCAGGGCAUCUCUGAGAGAAAUGCC

Variants of: B1
Experiment: self-cleavage, relative activity (ratio to wild type); higher = more cleavage; in vitro, sequencing; the parent is a self-cleaving ribozyme

Row | Variant | self-cleavage
1 | U46C U47C | 1.95
2 | A140C U143C | 1.81
3 | C17U U20G | 0.57
4 | U73A A117G | 1.4
5 | U20C U73C | 1.62
6 | A22G G125A | 1.9
7 | U15C C95U | 0.28
8 | U39A G135A | 1.57
9 | A65G A138G | 0.06
10 | A43G C146U | 1.69
11 | A69U | 0.06
12 | A30U G82A | 1.57
13 | G10A C95A | 0.03
14 | U102C U115A | 1.51
15 | A30G C63U | 0.51
16 | U13A U109C | 1.17
17 | A67G U115A | 0.61
18 | U108G U112C | 2.58
19 | A79G A136U | 0.91
20 | U12G U62C | 0.14
21 | A42G U119A | 0.95
22 | U13C C116U | 0.7
23 | U46C U108G | 1.15
24 | U23C U45A | 1.25

Row | Variant | self-cleavage
25 | A129C A140U | 1.75
26 | G8U A59U | 0.63
27 | U26A A121G | 1.46
28 | C19U A138U | 1.24
29 | A79G G89A | 0.03
30 | G7U A57G | 0.12
31 | C71U A138G | 1.21
32 | U1C U14G | 0.36
33 | A57U A117G | 0.09
34 | U20C G33C | 0.74
35 | A30C A140G | 1
36 | U29C G114A | 1.38
37 | U26A G126C | 1.42
38 | U85C U130C | 0.23
39 | U12G A64G | 0.52
40 | U109G A121G | 0
41 | A138G U143C | 1.54
42 | G48A G122A | 1.27
43 | G34U U47G | 1.04
44 | U29C A121C | 1.93
45 | A64G G74A | 0.12
46 | A67G A121G | 0.53
47 | A24U U108A | 1.51
48 | G60A A94G | 0

Row | Variant | self-cleavage
49 | U15A G135A | 0.87
50 | G8A A121G | 0.54
51 | U109A U130C | 1.54
52 | A30U A141G | 0.87
53 | U9C U20A | 0.95
54 | U14A A50G | 1.25
55 | A69G A142G | 0.5
56 | G27A U46C | 0.7
57 | U9A C113U | 0.97
58 | A59G U119A | 0.09
59 | C71U U85A | 0.03
60 | U85C U119A | 0.25
61 | C99A U109C | 0.41
62 | C110U U132C | 1.45
63 | G7A U109C | 1.19
64 | U15C U134A | 1.04
65 | U26A C90A | 0.04
66 | A107G A136U | 1.82
67 | A69U A124C | 0.02
68 | A121U G126A | 0.83
69 | U29G U104A | 1.6
70 | U81G | 1.32
71 | A65U U112A | 0.14
72 | C51G C71U | 1.5

Row | Variant | self-cleavage
73 | A78G G122A | 0.65
74 | U5A A124U | 1.2
75 | G40C | 1.12
76 | A64G U119C | 0.32
77 | U45C A121G | 1.71
78 | C95U U102C | 0.14
79 | U46C G55A | 0.59
80 | A30U A94G | 0.55
81 | C19A U100A | 0.51
82 | U47C G53A | 1.78
83 | A42C C95U | 0.04
84 | G54A U119C | 1.35
85 | C19U U108C | 1.26
86 | G54U U62A | 0.02
87 | C66U U143C | 0.03
88 | G72C U134A | 0.97
89 | U5C U87A | 0.15
90 | G55U U115C | 0.4
91 | G54A A136G | 0.62
92 | G60U A138G | 0.04
93 | G34A A124U | 1.32
94 | G34A A124G | 0
95 | U112A U134G | 1.73
96 | U13C U62G | 0

Row | Variant | self-cleavage
97 | G40A U85G | 0.04
98 | U47C A142G | 1.5
99 | C37G A77U | 1.06
100 | C63A A64G | 0.02
101 | U115A A124U | 1.79
102 | U108C A117G | 1.62
103 | A121G A142G | 1.48
104 | U39C U134C | 1.5
105 | A31U U81A | 1.57
106 | U62C U85C | 0.05
107 | A107G G126C | 2.78
108 | U109A A121G | 1.82
109 | G49U C76U | 2.46
110 | U108A U143C | 1.32
111 | U15C G34C | 1.59
112 | U12A U13C | 1.58
113 | U96C U115C | 0.32
114 | U23A U109C | 1.06
115 | U108G U115C | 1.58
116 | A78U A138G | 2.06
117 | A2G A94C | 0.29
118 | U52A A121U | 1.03
119 | U39C G83A | 0.2
120 | U134G G137U | 0.94

Row | Variant | self-cleavage
121 | U81C C116A | 0.59
122 | U108C U143C | 1.75
123 | U15A U47C | 0.9
124 | U9A U109C | 1.34
125 | A2G G55A | 0.2
126 | U9C U12C | 1.13
127 | U20A U81C | 0.84
128 | G89A A94G | 0.07
129 | A77G U143C | 2.2
130 | C68U U81C | 0.18
131 | G86U A129G | 0.09
132 | U15C C28U | 2.35
133 | A78G U85C | 0.11
134 | A78U A140C | 2.32
135 | U9C G137A | 1.15
136 | A59G A94C | 0.29
137 | U52A G88A | 0.12
138 | A117U A138U | 1.16
139 | U15C A79U | 1.88
140 | A50U G144C | 0.79
141 | G33C A136G | 0
142 | A57U U62G | 0
143 | U5C G137A | 1.38
144 | A59G U85G | 0.14

Row | Variant | self-cleavage
145 | U46G U132A | 1.4
146 | A22G U46A | 0.95
147 | U29A G89U | 0.04
148 | U26A A140G | 1.02
149 | U112A U119C | 2.45
150 | U1A U100C | 1.18
151 | C111A A141G | 1.03
152 | U14A U45C | 1.09
153 | C128U U130C | 1.35
154 | G4U U13C | 0.93
155 | U12G A141G | 1.22
156 | A22U A92U | 0.63
157 | A30U A107G | 1.28
158 | U9C C146U | 1.1
159 | A69C A142G | 0.11
160 | U13C G21U | 1
161 | G33U U119C | 1.19
162 | U52A A141G | 1.11
163 | U15C A30U | 0.5
164 | U87G A117C | 0.31
165 | G8A U62G | 0
166 | A42G A92G | 0.15
167 | U46G A79U | 2.15
